Laboratory results published in the supplement of paper PMC9170038.

What follows are sequences tested on K4 kissing-loop RNA reporter (assay: apparent KD of K4 kissing-loop reporter; higher = weaker reporter binding). Conditions: Eterna round: R107; input ligand: theophylline 20 uM.
Description: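 RNA-MaP round R107: designed RNA switches with theophylline, tryptophan, arginine or FMN aptamers are transcribed on-chip within common flanks. They are titrated with a labelled K4 kissing-loop RNA reporter in RNA-MaP buffer (100 mM Tris pH 7.5, 80 mM KCl, 4 mM MgCl2), without ligand or with the indicated ligand. Median apparent KD per design.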
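Note: bound reporter read as fluorescence of individual clusters on recovered sequencing chips by microscopy, with normalized cluster intensities fitted with a binding model.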

| Sequence | apparent KD of K4 kissing-loop reporter |
| --- | --- |
| CUUGGUCCACGAAGGAGCGCCGUGCAGUGAUGUUGCAGUCAGAUCGAGUGAUGUUUCGGGCGGCAGGUAGGUCGCGUGGCCCUUU [Excusion Arginine B GF 25] | 640 nM |
| CUUGAAAUGACUGAUACCAGUGAAAAUCUAUGUAGUGAUGUUAUAUACUAAUUUAAUAAGCGCCCUUGGCAGCAGUAUGAAUUAU [AstrosExc-theB#18] | 561 nM |
| UUUUACGAUACGGCCGCCACUGGUGUUAUAUAUUUGCAGGAGUGAUGUUCGUGCGAUCAUUCCAUCAGGACCGGGUAUACGCGGC [theeternabot_sameState_KL_Trp_B_43] | 765 nM |
| CGAGUGAUGUUCGUUCGUAUAUUUGGGUGACAGGAUAUGCGGAAACGCAGAAGGGUCACCUUCGGGUUACCCGAAUUGGCGUUAU [Model 1] | 322 nM |
| AGACCACAAAGUGGUCAGUGUUCGCAGCAGCGAGGACCGGUACGGCCGCCACUCGCGAGUGAUGUUCGCGAGAGCUGCGAACACA [Omei KL Tryp A Exc A v7] | 83.3 nM |
| AAUAUACAUUAAUUAAUUAAAGGUUCAGAAGGAGCGUGAAUUAACACAGGUAGGUCGCUGAGCGAGUGAUGUUCGCUAUAUACUA [JR_ExcArginiA_Sub004] | 79.9 nM |
| GGCCCGGGCGCGGCCGCCACUCCCUCGUACCGCAAGGUAUGAUACCGAGUGAUGUUCGGUUGGAGGAGGACCGGGCGCCCGGGCC [#2 Exclusion - Tryptophan B Attempt #5 (HarryS)] | 77.4 nM |
| UAAGAACAGUCGGCCGCCACUUGAACUACAGAAGUAGGUAUAGCACCGUGAGUGAUGUUCACUGAAAGGACCGGGACUUGCUCCG [theeternabot_sameState_KL_Trp_B_30] | 430 nM |
| GGAUAGGACAUAGGAUAUGGUAGUGAUGUUACCAAACUGGUUAAACAUGUCAGAAAACUGGCAUGACCAGAAGGGUGUCCUAUCG [FmnBX 27 U11+G75] | 45.9 nM |
| AGUGCAUGCUCGGCCGCCACUCAGAAGAAGAUAGAAGUGAUGUUUCUAAUGAUGAGAAUAAUAAAGAGGACCGGGAGAUGUGCAA [First try] | 164 nM |
| AGGGUAAGGCGUUAACAUGACACCUGGGAAGGAGCGCAGUACACUGCAGGUAGGUCGCCCAGUGAUGUUGGGCGUAUGUAUUAGU [Legexeso] | 200 nM |
| AGAAACUUGUAUGUCGGCCCUGCGCGCGAUACCAGCCAAAUGGAUGGCCCUUGGCAGCGCAGCGAGUGAUGUUCGCCCGGCUGAC [Exclusion Theophylline A GF 21] | 110 nM |
| UAAAUAAUUCAAGGAUAUGUUUUCUAUUUCGAGUGAUGUUCGGUCUUAAUAAAUUUAAUAGAUUAUACAGAAGGUGAUGGAUAGU [Astrostest] | 188 nM |
| GAACGGCUGGCGGCCGCCACUGGUAUACGAGUGAUGUUCGGAUACACAUAGAAUAAGGUGAUUGACAGGACCGGGUCAGAGCCGG [#15 K4 Tryptophan B Same State] | 246 nM |
| UGUCAUUGGUCGGCCGCCACUUCAGGUCAAAGACCAGAGUGAUGUUCUUGCACAAAGUGCUUAAGAAGGACCGGGACCGAUGACU [TrypBS 14 #SwitchBubble #K4Middle] | 69.5 nM |
| UGACUACAGGAAUAAUAAUCUUAGUGAUGUUAGGAUAUGCUGAUAAGCAGAAGGAACUGAGAUCGAAAGAUCUCAAAAGUAGUCU [#05 K4 FMN A Exclusion] | 236 nM |
| GGAUAGGACAGAGGAUAUGGAGCUAGGCAAGAAUAACUUGUCUAGCAAUCCAUGAGGAGUGAUGUUCCAGAAGGCUGUCCUAUCG [FmnBX 2 - #SwitchBubble #StraticStem #DoubleMagnetSystem] | 163 nM |
| UAGGAUUUUUCGGCCGCCACUCUAGAUUCUGUGUAUUAUCUACGACUUGAAGUGAUGUUUCAGGAGAGGACCGGGAAGAUAUAAC [theeternabot_exclusion_KL_Trp_B_27] | 307 nM |
| AAUAUAUUGUGAAGGAGCGCGAAAAGCAGUGAUGUUGCUUACUUACAAUUUAUUUUUUACACGCAGGUAGGUCGCACAAUAUAUA [JR_SSArginiB_Sub015] | 280 nM |
| GGGUGUAGUGCGGCCGCCACUGUGAAAGUAGAAGAAUAUAGUGAUGUUAUAUAGGAUUAAAAGAAUAGGACCGGGCAUUAGACUU [#23 K4 Tryptophan B Same State] | 248 nM |
| UGUCAUUGGUCUGAUACCAGAUGAUAAUCUGGAGUGAUGUUCCAAGAACGACAAAGUCGCAUCCCUUGGCAGCAGACCGAUGACU [TheoBS 18 #SwitchBubble 13 #StaticStem] | 526 nM |
| CCAUUCUUUUACGAUACCAGUUUAAUUUAUUUAUUCAUAACCCUUGCCGAGUGAUGUUCGGACCCUUGGCAGCGUUUGCGAGAGG [vvuvmullin] | 485 nM |
| CCGAGUAGCUCCGAUACCAGCACAAUCGUUCAAUGAUCCAUGCGCAAGUGAUGUUUGCGUUGCCCUUGGCAGCGGGCAAAAGCUU [theeternabot_sameState_KL_Theo_B_2] | 86.5 nM |
| UUUGUGAGUGAUGUUUGCAAUACGUUACCGAAGGAUAUUGUUGCGCCAAGAAGGUCGGAUGGAUCCAUGGGACAUGCCCUGGAGA [theeternabot_sameState_KL_FMN_A_45] | 450 nM |
| UUAGAUCAAAGAUCAGUCUUAUCAAGAGCACGAGGACCGGUACGGCCGCCACUCGAGUGAUGUUCGAGAGCUCUUGUGACAAAUU [AK2 EXC Tryptophan A] | 154 nM |
| UAAAUAAUAAAACGAGUGAUGUUCGACGAUACCAGCCUCGAUAGAGGCCCUUGGCAGCGUAAAUGAUCACAAAGCCAAGGAAUAA [#OpenEnded 1] | 192 nM |
